Literature values in publication PMC5428663, “Identification of small molecule inhibitors of Interleukin-18” (Scientific Reports, 2017).

Molecular target: hIL-18
Conditions: read-out: affinity for hIL-18

B1: hIL-18BP (protein, UniProt O95998 31-194, looked up)
Interleukin-18-binding protein: TPVSQTTTAATASVRSTKDPCPSQPPVFPAAKQCPALEVTWPEVEVPLNGTLSLSCVACSRFPNFSILYWLGNGSFIEHLPGRLWEGSTSRERGSTGTQLCKALVLEQLTPALHSTNFSCVLVDPEQVVQRHVVLAQLWAGLRATLPPTQEALPSSHSSPQQQG
Kd: 0.4 nM
